Data published in publication PMC7460673, “Biochemical Characterization and Crystal Structure of a Novel NAD^+-Dependent Isocitrate Dehydrogenase from Phaeodactylum tricornutum” (International Journal of Molecular Sciences, 2020).
Where “and” joins values, the source holds several entries; their conditions need not be identical. Equal entries are not always repeated.

Tests used:
[1] = molecular target: T1, PtIDH1 (Phaeodactylum tricornutum, UniProt B7G620); assay: spectrophotometric NADH formation at […] nm; format: biochemical; conditions: read-out: Relative Activity (%) / PtIDH1
T1 construct: gene IDH1; hexamer also seen; C-terminal EF-hand domain

[2] = molecular target: T1, PtIDH1; assay: spectrophotometric NADH formation at […] nm; format: biochemical
[3] = molecular target: Phaeodactylum tricornutum isocitrate dehydrogenase 1, mature (without mitochondrial-targeting peptide) (Phaeodactylum tricornutum); assay: SEC; Superdex 200 10/300 column calibrated with five standard proteins, 0.5 mL/min; 20 mM Tris, 300 mM NaCl, 5% glycerol, pH 7.5
[4] = substrate: O=C(O)CC(C(=O)O)C(O)C(=O)O; assay: purified protein; format: biochemical, Phaeodactylum tricornutum; conditions: 2 mM Mn2+, NAD+, 50 mM Tris pH 8.0, 25 °C, varied as DL-isocitrate, cooperative, nH 1.43
[5] = substrate: NC(=O)c1ccc[n+]([C@@H]2O[C@H](COP(=O)([O-])OP(=O)(O)OC[C@H]3O[C@@H](n4cnc5c(N)ncnc54)[C@H](O)[C@@H]3O)[C@@H](O)[C@H]2O)c1; assay: purified protein; format: biochemical, Phaeodactylum tricornutum; conditions: 2 mM Mn2+, DL-isocitrate, 50 mM Tris pH 8.0, 25 °C, varied: cofactor

Molecule `Nc1ncnc2c1ncn2[C@@H]1O[C@H](COP(=O)(O)OP(=O)(O)O)[C@@H](O)[C@H]1O` [ADP] has an activity at 1000 µM [1] of 86.63 ± 0.2%.

`Nc1ncnc2c1ncn2[C@@H]1O[C@H](COP(=O)(O)OP(=O)(O)OP(=O)(O)O)[C@@H](O)[C@H]1O` [ATP] showed an activity at 1000 µM [1] of 88.7 ± 0.8%.

`NC(=O)C1=CN([C@@H]2O[C@H](COP(=O)(O)OP(=O)(O)OC[C@H]3O[C@@H](n4cnc5c(N)ncnc54)[C@H](O)[C@@H]3O)[C@@H](O)[C@H]2O)C=CC1` [NADH] was tested, and the Ki [2] was 450 ± 80 µM.

In the case of “Phaeodactylum tricornutum isocitrate dehydrogenase 1, mature (without mitochondrial-targeting peptide) (enzyme)”, the stoichiometry N [3] is reported as 2 and 6.

B1: PtIDH1 (Phaeodactylum tricornutum CCAP 1055/1) (protein)
chain: MLSVENKVVAPPMVYIAGEEMTRYACDLVVKSWLEPYFDLSQWEYFDLSCVNRDNTNDQVLRDAVTAGQRIGAIFKEPTITPSAIQKKAFGLKNSLGSPNGAMRAGWNGITISRDTIHIDGIELGYKRPVFFERHAVGGEYGAGWSKVGRGTLLTTYLPSDGRDPFVVDKRDLTDQHNVVVTYHNPYDNVEPLAHLFFQRCLDANITPYVVTKKTVFKWQEGFWAVMKDVFDEHYKSRFEEKGLLQACGGDLQHLISDAATMQLIRWTDGGFGMAAHNYDGDMLTDQIAQVHRSPGFITSNLVGKAPDGSLIKEFEASHGTVSDLWNDHLAGKETSLNPLGLVEAIVGALQHAAVLDAEKNPDDEHKVKARDQIFNFTTTLRTAMHNTFRYGQGTRDMSGPSGYTTEDFVRKVAWRLQRYLDAQYDEAPPPQLGEPSRKLRRNYDIDEEAINGLFQKYDKNGDGFIDFEEFTRMLVKMNLAPLLTKKEKEKKPDV
notes: hexamer also seen; C-terminal EF-hand domain
For B1, the K0.5 [4] was 84.9 ± 5.2 µM, the Km [5] was 1132.5 ± 23.3 µM and the kcat [5] was 180.5 ± 6.8 s⁻¹. It also gave a kcat/Km [5] of 160000 M⁻¹ s⁻¹.
